Measured values from patent publication US6500934 (dated 2002).
Non-standard residues stand in square brackets, D forms with d. No end group written: not given here. Ahx = NCCCCCC(=O)O

Molecular target: bombesin receptor expressed in transfected Xenopus laevis melanophores (plasmid pJG3.6BR)
Assay: cell-based or functional assay

EC50 (t=30 min) of pigment dispersion in melanophores transfected with the bombesin receptor: 110 nM
Binder: KKKKKKKKKKKKKKKKKKKK[Ahx]GGGQQRLGNQWAVGHLM-NH2 (ends and bridges not checked) [Bombesin monomer (K(20)-εAhx-GGG-QQRLGNQWAVGHLM)]
